Numbering of substitutions follows the chain as printed. Read-outs that look alike come from different tables or passages of the source.
B1: Rank2.4 (antibody, V domains shown)
VH: EVQLQQSGPELVKPGASVKMSCKASGYTFTDYNMHWVKQSHGKSLEWFGYIDPNNGGIRYNQLFKGKATLTVNKTSRIAYMELRSLTSEDSAVYYCAREGGYWYFDVWGTGTTVIVSS
VL: DIVMTQSHKFKSTPVGDRVSITCKASQDVSTAVAWYQQKPGQSPKLLIYWASTRHTGVPDRFTGSGSGTDYTLTISSVQAEDLALYYCQQHYSTPFTFGSGTKLEIK
B2: Rank2.5 (antibody, V domains shown)
VH: B1 VH with F48I, D52N, I58S, L63K, V72G, T75S, R77S, I78T, I115T
VL: B1 VL with K11M, P14S, V33I
B3: NP-specific, second most expanded IgG clone, most expanded antibody variant (antibody, V domains shown)
VH: B1 VH with F48I, D52N, I58T, R59S, L63K, T75S, R77S, I78T, I115T
VL: B1 VL with K11M, P14S
notes: also called second most expanded clone; previously tested variant
B4: third additionally expressed variant of the second most expanded IgG clone (single-reactive) (antibody, V domains shown)
VH: B1 VH with T30I, F48I, D52N, I58T, R59N, L63K, T75S, R77S, I78T, I115T
VL: B1 VL with K11M, P14S, K103E
notes: also called one of the three tested variants; single-reactive antibody
B5: NP-specific IgG clone other than the second most expanded clone (antibody, V domains shown)
VH: QVQLQQSDAELVKPGASVKISCKVSGYTFTDHTIHWMKQRPEQGLEWIGYIYPRDGSTKYNEKFKGKATLTADKSSSTAYMQLNSLTSEDSAVYFCARGGYYGFYYFDYWGQGTTLTVSS
VL: DIVLTQSPASLAVSLGQRATISCRASESVEYYGTSLMQWYQQKPGQPPKLLIYAASNVESGVPARFSGSGSGTDFSLNIHPVEEDDIAMYFCQQSWKVPYTFGGGTKLEIK
notes: also called one of the two NP-specific clones

Key:
[1] = target: T1, LCMV clone 13 nucleocapsid protein (NP), purified recombinant (LCMV clone 13 (stand-in: strain …, UniProt P09992, strain))
[2] = target: T2, LCMV clone 13 nucleocapsid protein (NP), purified recombinant (Lymphocytic choriomeningitis virus …, UniProt P09992 1-558); assay: BLI
T2 chain: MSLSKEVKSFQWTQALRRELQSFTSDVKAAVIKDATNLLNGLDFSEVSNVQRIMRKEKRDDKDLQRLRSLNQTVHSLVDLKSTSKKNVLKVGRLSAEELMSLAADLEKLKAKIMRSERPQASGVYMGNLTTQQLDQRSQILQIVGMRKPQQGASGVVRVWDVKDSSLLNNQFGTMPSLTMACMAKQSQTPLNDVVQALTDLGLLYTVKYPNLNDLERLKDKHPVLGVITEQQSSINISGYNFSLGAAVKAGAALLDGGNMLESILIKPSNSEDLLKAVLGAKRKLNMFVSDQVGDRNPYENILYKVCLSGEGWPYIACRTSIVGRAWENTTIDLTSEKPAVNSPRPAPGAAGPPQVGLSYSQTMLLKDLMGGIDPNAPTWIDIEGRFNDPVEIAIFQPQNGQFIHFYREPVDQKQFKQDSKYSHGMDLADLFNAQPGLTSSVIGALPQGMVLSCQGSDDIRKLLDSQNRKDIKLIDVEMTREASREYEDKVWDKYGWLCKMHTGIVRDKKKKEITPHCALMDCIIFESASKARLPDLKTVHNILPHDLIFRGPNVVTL

[3] = target: T1, LCMV clone 13 nucleocapsid protein …; assay: ELISA; settings: one partner purified

Binder	binding result [1]	Kd [2] [nM]	binding result [3]
B1	binds	–	–
B2	binds	–	–
B3	–	470	binds
B4	–	370	binds
B5	–	–	binds

From article PMC9299196, “Profiling the specificity of clonally expanded plasma cells during chronic viral infection by single‐cell analysis” (European Journal of Immunology, 2021)
